Reference: a protein production outcome set (Wang et al. 2014)

Experiment: label from the status in PepcDB records
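Note: failed if final PepcDB status was selected cloned or expressed and not failed if soluble or beyond.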

Sequence	protein production
MQFIVSKKEFIPPVIAPDIIETLGDDYEIWTYEDYERLPPLLVGVYSYSAIPKCLAPLSTQGLVKSGVFRLQREFVPGLYGNGVYVVVIDTGVNYAQEAFMTPEGKTKIAVLWDQNTDTVYSEDEINAAILSENPYESIPGDEDGHGTFVASVICGNDRPQDDFAGVAPQAKLIVVKLKRAPQKLYDFYFIPDRKMVYSEVDVMRAVHFADEFAGQKGAPAVFCMALGCNNGSHTGAEDLSEYLDYITAKRGRAVVAAAGNEANSRHHYKGRITDTVDDIEINVEQDMDGFYLECWALSPELFTLSVISPSGQSNPAGVPMRIDSGEYSFLLEGTQVTIDYRQTGRQTRDLLIFIRFEKVVKGVWTIRVFPLSTIGGVFNMWLPMTGLLDADVSFIVSEPDTTLTMPSDAKLVITAGGYNSLNDAILLESGRGFDADGGIKPDLVAPAVDITGANLRGMYIALSGTSAAAAITAAVAALIMEWMIVRGNVLLANGVDIKNVMVRNCRRKEKTDYPNKIFGYGFMNGFANF	failed
MQFQDVRLMRVVVCRRLGPAKGQRRWHPLDLGTTGCFENLGAQRPTYRMRAIRMLECAMPNRLVRSLQRWRPFGLPPHRWRLAPWYWRGLQVTLEPGSAIAWIVRLTGGFEETEIDIAAALYSALYPDRCILDVGANVGIHSLAWARLAPVVALEPAPGTHSRLEANVAANGLQDRIRTLRTAAGDAVGEVDFFVAADSAFSSLNDTGRIRIRERTRVPCTTLDALAAELPLPVGLLKIDVEGLERAVIAGAAELLRRDRPVLLVEIYGGAASNPDPERTIADIRAYGYEPFVYADDAGLQPYQRHRDDRYCYFFIPSRKG	failed
MQGGMMKQLVVAGFFLLLLTSPLSALDVDTYRSSQKQFNTEDKAEQGDAQAQFELGLKYEKGDGVNKDLKKAIYWYQKAADQGQAEAQNNLGVLYLKGEGVPQNSQQAMYWFKKASEQGLAIGQNNIGILYENGLGVKKDPGQAFIWYQKAAEGGNSDGQYNLAVMYMYGNGIPKDIKKAIHWYIKAAEQGDLDAQNNLGVLYERGEEVPRDLKAAISWYTRAANEGSLIAQTNLGVLYMTGDPSIQDGKKAIYWYEKAAAQGGEKAQNNLGYIYEQGIGTEKDMKKAIYWYEKAAENGFTLAQNNLGVLYSNDGELQDYKKAYLWFKKAADQGFAEAQNNLGLMYMKGNGLSVNYHEAVLWYKRAAEQGLPLAQHNLAIMYMKGLGIKKDNKLAIKWYQKAAEKGLDLAQNNLAVMYIRGEGVKRDFKKAMYWYQKAAEQGLDLAQINLGIMYLDGMGVNKDFAKAKYWIGKAKDSGSQDALTIWNKNKLWKYQ	failed
MQGIGEGVRRAFPIVLGYVPVGFAFGVLALKSGIPAWGALAMSLFVFAGSGQLIAVGLIGGGAPLASVVLTTFVVNLRHLLMSAALAPRLRDWGLLRQALFSAEMTDETFAVHVSTLRGEADDPSRAAVFACNVTAHAAWVGGSALGVFCSTLVADVRPLGLDYALAAMFIALLLPQCRSRAHLFAALVAGACSVGFALSGAGRWNVMLATVCAATLVSLLPVGKTSTTREEMGTPGGEGGAHAD	failed
MQGIKNLTHGPINRQLFNLAMPIMATSFIQMAYSLTDMAWVGRLGSEAVAAIGSVGILTWMSGSISLLNKVGSEVSVGQSIGAQNQEDARQFASHNITIALIISICWGGLLFMFASPIIRIYELEEHITANAIEYLRIISTALPFIFLSAAFTGIYNAAGRSKIPFYISGTGLIMNIILDPLFIFGFGLGTNGAAYATWLSQATVFAIFIYQLRFRKDALLGGFPFFSRLKKKYTRRILKLGLPVATLNTLFAFVNMFLCRTASEQGGHIGLMTFTTGGQIEAITWNTSQGFSTALSAFIAQNFAAGRIERVLKAWHTTLWMTGIFGTFCTLLFVFYGNEVFSIFVPEQAAYEAGGVFLRIDGYSQLFMMLEITMQGVFYGIGRTVPPAIVSIVCNYMRIPLAILFVRMGMGVEGIWWAVCVTTIAKGLILLGWFTMIRKKCLNLPSVSTR	failed
MQGIPLGSEYFEKLDPYFLVCIAKEYLLFCPKQPRLPGQIVSPLLKQVAVILNPVVKAAPALIDPLYLMAQVRYYSGELENAQSILQRCLELDPASVDAHLLMCQIYLAQGNFGMCFHCLELGVSHNFQVRDHPLYHLIKARALNKAGDYPEAIKTLKMVIKLPALKKEEGRKFLRPSVQPSQRASILLELVEALRLNGELHEATKVMQDTINEFGGTPEENRITIANVDLVLSKGNVDVALNMLRNILPKQSCYMEAREKMANIYLQTLRDRRLYIRCYRELCEHLPGPHTSLLLGDALMSILEPEKALEVYDEAYRQNPHDASLASRIGHAYVKAHQYTEAIEYYEAAQKINGQDFLCCDLGKLLLKLKKVNKAEKVLKQALEHDIVQDIPSMMNDVKCLLLLAKVYKSHKKEAVIETLNKALDLQSRILKRVPLEQPEMIPSQKQLAASICIQFAEHYLAEKEYDKAVQSYKDVFSYLPTDNKVMLELAQLYLLQGHLDLCEQHCAILLQTEQNHETASVLMADLMFRKQKHEAAINLYHQVLEKAPDNFLVLHKLIDLLRRSGKLEDIPAFFELAKKVSSRVPLEPGFNYCRGIYCWHIGQPNEALKFLNKARKDSTWGQSAIYHMVQICLNPDNEVVGGEAFENQGAESNYMEKKELEQQGVSTAEKLLREFYPHSDSSQTQLRLLQGLCRLATREKANMEAALGSFIQIAQAEKDSVPALPALAQAYVFLKQIPKARMQLKRLAKTPWVLSEAEDLEKSWLLLADIYCQGSKFDLALELLRRCVQYNKSCYKAYEYMGFIMEKEQSYKDAVTNYKLAWKYSHHANPAIGFKLAFNYLKDKKFVEAIEICNDVLREHPDYPKIREEILEKARKSLRP	failed
MQHGPVVRRRKLGAELRALRTSAGITSGEAARLVGWHQSKVSRIETGTSGAKPADVRLLLDAYGVTDEQLRGLLVMLAHSEDAGGRNHWWHAYRGVLPPTYRDFISLESQAAAMRTLETTVVPGLLQTPEYARAVTRAAVDGMPAERLDTLVEVRLARQDVLRGEPPLELSAVLDEAVLRRVVGGPGVMSRQLTRLVEAAQLPHVRIQVLPFAAGAHIGVTGPFVIFSFSSTSDLDVVVLDHLTSSLHLERKEDLEAYTEAFNALLIHALSPEDSLDFIAATAAGA	failed
MQHLDLQVVRKALKWSVGGERVWFCTVLTTYGSAPRAPGSLLAVNASGEWIGSLSGGCVEDDFLERVAAGGFPDPAVIVRYGEGDDPNSNIRLPCGGILDVLVENLAPDCDVQAHLRELESALLGQRRLLREVELGSGARSLRDDSSHGPRAERDGECVRLRVGAAQRLLLAGYSSVAHACAEFGKGLGFEVILCDPREEALRGVVLEGIEIRRELPSLFIADGGCHADTAVVALTHDPKIDDLAMLEAVRTEAFYIGVMGSRATSEKRFERLRRIGGLGDAELARIHAPIGLNLGSKTPAEIALAVLADILRIRNGIPRERL	failed
MQHNELKTPYFMINEDKLIANLEKAKQLKEISGVKLVLALKCFSTWGVFDIIKPYLDGTTSSGPFEVKLGYETFGGETHAYSVGYSEDDVREVADICDKMIFNSQSQLAAYRHIVEGKASIGLRLNPGVSYAGQDLANPARKFSRLGVQADHIKPEVFEGIDGVMFHMNCENKDVDAFIGLLDAISEQFGEYLNKLDWVSMGGGVFFTWPGYDIEKLGLALKAFSEKHGVQMYLEPGEAIITKTTDLVVTVVDIVENVKKTAIVDSATEAHRLDTLIYNEPASILEASDNGEHEYVIGSCSCLAGDQFCVANFDQPLEIGQRLHILDSAGYTMVKLNWFNGLRMPSVYCERSSGEIQKLNEFDYSDFKRSLSQWSVK	failed
MQIFETILIFLALVILSSFLHTFLPKIPLAFIQIILGMLLYVTPIPVQFNFDSELFMVALIAPLLFVEGVKVSRVHLRRYIKPVLMMALGLVVTTVIVVGLFVHWIWPELPMAAAFALAAILCPTDAVAVQAITNGKVLPKGSMTILEGESLLNDAAGIISFKIAVAALITGGFSMVNAVEQFLISSIGGFIVGLLIGVALVRFRVTLSRRGIENINMFTFIQLVTPFITYIVAEMFHASGIIAAVVAGLVHGFERDRIAQARTRLQMSYNHTWNILGYALNGFVFSILGFLIPEVVGRIIENEPHNLIFLITVTCLIALAIYLFRFLWVFVLYPYFYLPVSPFQKMISHNEDDQKTAETPPKRGMYAFIMTLCGVHGTISLAIALTLPYMLADHHSFIFRDDLLFIASGMVIISLIVAQMILPVVTPNAKKPKIVGMNFKQARVYILEKVIDSLNQQSSVTSSFQYGNVIKDYHDKLAFLRTVENEDENTKELQRLQKLAFDVENQTLNGLVENGDITTNVLDNYMRYTERTQVYKQASLLQRIKVEVRAMILKRRIRTKVKTNAASPLSVVDNLREISNIMRTVHYRVVSRLGKETTENNKLEVGMICDSYLIRIDNLTPSNFFNPKNENSITKIKLSALKEQRRILNQLVEDEEVSEVTALKIREAINYDEMIIVDSSTD	failed
MQILEDFDGKALPKLETDRLILRQRTVGDVPAMFDYVCLEEVAYPAGLSPIASLEDEYDYFENRYYQNLEKAKLPSGYGITVKGSDRIIGSCAFNHRHEDDVFEICYLLHPDYWGHGYMTEAVAALIEVGFTLLNLHKIEIRCYDYNKQSRRVAEKLGFTLEATIRDRKDNQDNRCVNLIYGLLRSEWE	failed
MQIVQIARPGSMKGWIRKAVARYAHATGRGGKFYRRFCNPSGLEWGAYLARWGNFHSVGSNFYVNTGCKFLDPSLVRIGNSVGLSDCTLIGHDGVVLLIEHRFGKHLDSVGFIDIKDNCFIGHGAIVMPRVTIGPESIVAAGAVVTKDVPPGTVYGGNPAEFICTTEQLIKRVEARCEAYPWIDLVKQRNGAYDPEVEPLLMAQRRQYFFGDSLEHHHHHH	failed
MQKFLDWLERVLTPLAKVIGENKYLVAIRDGFLLSTPLLIVGSVFLLIANFPLPQWDTWMSHLLGKDWATMMSVPASASFDVMTILAVVGIAYSLGKQFNVDAMQAGIIALVSFFIVTPYQTLFTPENSSKVYEVTSLPLKWMGSSGLFLGMIVALIATRLFVAIVRKGWTIKMPEGVPPTVVKSFEALIPSFLVVTLMFLVNWLAALTPYGNLQDVIFEFLQTPLLSLGNTLGAMSIAYLFLHFFWFFGINGGSVVGAVFNPVLRALSVENLQAFKDGHEIPNIITGQFQDMFATFGGAGSTLSLIIVMVLFCKSQRIKKLSQLSLIPGVFGINEPIIFGLPIVLNPILLIPFVLVPAINIIIAYFAMDWGLVPLTNGIQLPWTTPPIISGFLVSGWQGSILQALLLVLGMFIYYPFIRVMDDQYLREEWKAQEEESEEIDFDSFDFDDL	failed
MQKIVIVANGAPYGSESLFNSLRLAIALREQESNLDLRLFLMSDAVTAGLRGQKPGEGYNIQQMLEILTAQNVPVKLCKTCTDGRGISTLPLIDGVEIGTLVELAQWTLSADKVLTF	not failed
MQKKQVIAVLVAVVGIGIVFSLPKVLVDNEKESVEGAEVTVAHEDSLSEVGKLMAEKHTHKPSDSEQKKLQDFTKNYYSISDKEKKRIFADSILGYYNKFHKYDSVAKYSGEIAMLQPNEKNLLSAADAYMQASDLVSVNEKSAYMDKSRLYYEKALDINASNLDTKSKLAMTYVTTSNPMTGIRILQEVVKEDPRNETAIFNLGYLSMQSRQYNKAVDRFKSLIEINPAHASGTFYLGLSYLELGNKGKANQYFMKAKGLDSDPEFQAIIDSYLKESN	failed
MQLPLHQVAQPAFYISVVPDMVGGRLSSHDRDLLGLAHQLAGQDGAVLAVVFGEHKESAFATAGVDRLLVLQGSEFEGYAPEQRVQGLRAVDNQFSPRHWLLPDSRTGGGELGRRFAAALGERPATRVWQVKDGQCIGRAGAGLQDLARPVVRLILAAAECAEPVSETRHEALPVELSTSVARSLARIEDLGAVAVDPAAIPMAEAEFIFSGGNGVKDWPLFHQTAAALGATEGASRVAVDDGFMARDRQVGASGIWVTARVYVAVGISGAIQHLQGIGACDKVVAINLDPGCDMIKRADLSVIGDSAEILKALIAAVAAYRNDAKRDAA	failed
